Measurements from article PMC5467235, “Variation in auxin sensing guides AUX/IAA transcriptional repressor ubiquitylation and destruction” (Nature Communications, 2017).

B1: GST-IAA6 [Arabidopsis thaliana] / ASK1-TIR1 protein complex [Arabidopsis thaliana] (parent)
chain 1: MAKEGLALEITELRLGLPGDNYSEISVCGSSKKKKRVLSDMMTSSALDTENENSVVSSVEDESLPVVKSQAVGWPPVCSYRRKKNNEEASKAIGYVKVSMDGVPYMRKIDLGSSNSYINLVTVLENLFGCLGIGVAKEGKKCEYIIIYEDKDRDWMLVGDVPWQMFKESCKRLRIVKRSDATGFGLQQD
chain 2: MQKRIALSFPEEVLEHVFSFIQLDKDRNSVSLVCKSWYEIERWCRRKVFIGNCYAVSPATVIRRFPKVRSVELKGKPHFADFNLVPDGWGGYVYPWIEAMSSSYTWLEEIRLKRMVVTDDCLELIAKSFKNFKVLVLSSCEGFSTDGLAAIAATCRNLKELDLRESDVDDVSGHWLSHFPDTYTSLVSLNISCLASEVSFSALERLVTRCPNLKSLKLNRAVPLEKLATLLQRAPQLEELGTGGYTAEVRPDVYSGLSVALSGCKELRCLSGFWDAVPAYLPAVYSVCSRLTTLNLSYATVQSYDLVKLLCQCPKLQRLWVLDYIEDAGLEVLASTCKDLRELRVFPSEPFVMEPNVALTEQGLVSVSMGCPKLESVLYFCRQMTNAALITIARNRPNMTRFRLCIIEPKAPDYLTLEPLDIGFGAIVEHCKDLRRLSLSGLLTDKVFEYIGTYAKKMEMLSVAFAGDSDLGMHHVLSGCDSLRKLEIRDCPFGDKALLANASKLETMRSLWMSSCSVSFGACKLLGQKMPKLNVEVIDERGAPDSRPESCPVERVFIYRTVAGPRFDMPGFVWNMDQDSTMRFSRQIITTNGL
chain 3: MSAKKIVLKSSDGESFEVEEAVALESQTIAHMVEDDCVDNGVPLPNVTSKILAKVIEYCKRHVEAAASKAEAVEGAATSDDDLKAWDADFMKIDQATLFELILAANYLNIKNLLDLTCQTVADMIKGKTPEEIRTTFNIKNDFTPEEEEEVRRENQWAFE

Variants of: B1
Test: one-point saturation binding assay with [3H]IAA (radioligand binding)
Details: 200 nM [3H]IAA, read off a plot

Row | response | Variant
1 | 3100 c.p.m. | chain 1 MAKEGLALEITELRLGLPGDNYSEISVCGSSKKKKRVLSDMMTSSALDTENENSVVSSVEDESLPVVKSQAVGWPPVRSYRRKKNNEEASKAIGYVKVSMDGVPYMRKIDLGSSNSYINLVTVLENLFGCLGIGVAKEGKKCEYIIIYEDKDRDWMLVGDVPWQMFKESCKRLRIVKRSDATGFGLQQD [chain 1 C78R]
